Test results published in the RNAGym collection of RNA variant scans (doi:10.7554/elife.80360).

B1: CPEB3 Ribozyme (parent)
chain: GGGGGCCACAGCAGAAGCGUUCACGUCGCGGCCCCUGUCAGAUUCUGGUGAAUCUGCGAAUUCUGCUGU

Variants of: B1
Experiment: self-cleavage, relative activity (ratio to wild type); higher = more cleavage; co-transcriptional

Point of comparison: AGGGGCCACAGCAGAAGCGUUCACGUCGCGGCCCCUGUCAGAUUCUGGUUAAUCUGCGAAUUCUGCUGU, self-cleavage 0.0729. Against it:
- CGGGGCCCCAGCAGAAGCGUUCACGUCGCGGCCCCUGUCAGAUUCUGGUGAAUCUGCGAAUUCUGCUGU — higher, 0.221
- CGGGGCCUCAGCAGAAGCGUUCACGUCGCGGCCCCUGUCAGAUUCUGGUGAAUCUGCGAAUUCUGCUGU — higher, 0.227
- AGGGGCCACAGCAGAAGCGUUCACGUCUCGGCCCCUGUCAGAUUCUGGUGAAUCUGCGAAUUCUGCUGU — lower, 0.0362
- CGGGGCCACAGCAGGAGCGUUCACGUCGCGGCCCCUGUCAGAUUCUGGUGAAUCUGCGAAUUCUGCUGU — higher, 0.228
- CGGGGCCACAGCAGCAGCGUUCACGUCGCGGCCCCUGUCAGAUUCUGGUGAAUCUGCGAAUUCUGCUGU — higher, 0.266
- AGGGGCCACAGCAGAAGCGUUCACGUCGCGGCCCCUGUCACAUUCUGGUGAAUCUGCGAAUUCUGCUGU — lower, 0.0331
- AGGGGCCACAGCAGAAGCGUUCACGUCGCGGCCCCUGUCAUAUUCUGGUGAAUCUGCGAAUUCUGCUGU — higher, 0.0947
- CGGGGCCACAGCAGAAGCGUUCACGUCGCGGCCCCUGUCAGAUUCUGGUGACUCUGCGAAUUCUGCUGU — higher, 0.2
- CGGGGCCACAGCAGAAGCGUUCACGUCGCGGCCCCUGUCAGAUUCUGGUGAGUCUGCGAAUUCUGCUGU — higher, 0.24
- AGGGGCCACAGCAGAAGCGUUCACGUCGCGGCCCCUGUCAGAUUCAGGUGAAUCUGCGAAUUCUGCUGU — higher, 0.134
- AGGGGCCACAGCAGAAGCGUUCACGUCGCGGCCCCUGUCAGAUUCCGGUGAAUCUGCGAAUUCUGCUGU — higher, 0.0905
- AGGGGCCACAGCAGAAGCGUUCACGUCGCGGCCCCUGUCAGAUUCGGGUGAAUCUGCGAAUUCUGCUGU — lower, 0.0453
- AGGGGCCACAGCAGAAGCGUUCACGUCGCGGCCCCUGUCAGAUUCUGGUGAAUCUGCGAAUUCUGCUAU — higher, 0.136
- AGGGGCCACAGCAGAAGCGUUCACGUCGCGGCCCCUGUCAGAUUCUGGUGAAUCUGCGAAUUCUGCUCU — higher, 0.222
- AGGGGCCACAGCAGAAGCGUUCACGUCGCGGCCCCUGUCAGAUUCUGGUGAAUCUGCGAAUUCUGCUUU — higher, 0.159
- AGGGGCCACAGCAGAAGCGUUCACGUCGCGGCCCCUGUCAGAUUCUGGUGAAUCUUCGAAUUCUGCUGU — higher, 0.103
- AGGGGCCACAGCAGAAGCGUUCACGUCGCGGCCCCUGUCAGAUUCUGGUGAAUCUACGAAUUCUGCUGU — higher, 0.0858
- AGGGGCCACAGCAGAAGCGUUCACGUCGCGGCCCCUGUCAGAUUCUGGUGAAUCUCCGAAUUCUGCUGU — higher, 0.0841
- AGGGGCCACAGCAGAAGCGUUCACGUCGCGGCCCCUGUCAGAUUCUGUUGAAUCUGCGAAUUCUGCUGU — lower, 0.045
- AGGGGCCACAGCAGAAGCGUUCACGUCGCGGCCCCUGUCAGAUUCUGAUGAAUCUGCGAAUUCUGCUGU — higher, 0.0895
- AGGGGCCACAGCAGAAGCGUUCACGUCGCGGCCCCUGUCAGAUUCUGGGGAAUCUGCGAAUUCUGCUGU — higher, 0.13
- AGGGGCCACAGCAGAAGCGUUCACGUCGCGGCCCCUGUCAGAUUCUGGAGAAUCUGCGAAUUCUGCUGU — higher, 0.075
- CGGGGCCACAGCAGAAGCGUUCACGUCGCGGCCCCUGUCCGAUUCUGGUGAAUCUGCGAAUUCUGCUGU — higher, 0.231
- CGGGGCCACAGCAGAAGCGUUCACGUCGCGGCCCCUGUCGGAUUCUGGUGAAUCUGCGAAUUCUGCUGU — higher, 0.268
- AGGGGCCACAGCAGAAGCGUUCACGUCGCCGCCCCUGUCAGAUUCUGGUGAAUCUGCGAAUUCUGCUGU — lower, 0.0357
- AGGGGCCACAGCAGAAGCGUUCACGUCGCAGCCCCUGUCAGAUUCUGGUGAAUCUGCGAAUUCUGCUGU — higher, 0.0887
- AGGGGCCACAGCAGAAGCGUUCACGUCGCGGCCCCAGUCAGAUUCUGGUGAAUCUGCGAAUUCUGCUGU — lower, 0.0492
- AGGGGCCACAGCAGAAGCGUUCACGUCGCGGCCCCCGUCAGAUUCUGGUGAAUCUGCGAAUUCUGCUGU — lower, 0.0487
- AGGGGCCACAGCAGAAGCGUUCACGUCGCGGCCCCGGUCAGAUUCUGGUGAAUCUGCGAAUUCUGCUGU — lower, 0.0321
- AGGGGCCACAGCAGAAGCGUUCACGUCGCGGCCCCUGUCAGAUUCUGGUGAAUCUGCGAAUUCUGCUGG — higher, 0.23
- AGGGGCCACAGCAGAAGCGUUCACGUCGCGGCCCCUGUCAGAUUCUGGUGAAUCUGCGAAUUCUGCUGA — lower, 0.0727
- AGGGGCCACAGCAGAAGCGUUCACGUCGCGGCCCCUGUCAGAUUCUGGUGAAUCUGCGAAUUCUGCUGC — higher, 0.187
- AGGGGCCACAGCAGAAGCGUUCACGUCGCGGCCCCUGUCAGAUUCUGGUGAAUCUGCGAAUUCGGCUGU — lower, 0.0694
- AGGGGCCACAGCAGAAGCGUUCACGUCGCGGCCCCUGUCAGAUUCUGGUGAAUCUGCGAAUUCAGCUGU — higher, 0.134
- AGGGGCCACAGCAGAAGCGUUCACGUCGCGGCCCCUCUCAGAUUCUGGUGAAUCUGCGAAUUCUGCUGU — lower, 0.0318
- AGGGGCCACAGCAGAAGCGUUCACGUCGCGGCCCCUUUCAGAUUCUGGUGAAUCUGCGAAUUCUGCUGU — higher, 0.104
- AGGGGCCACAGCAGAAGCGUUCACGUCGCGGCCCCUGUCAGAUUCUAGUGAAUCUGCGAAUUCUGCUGU — higher, 0.104
- AGGGGCCACAGCAGAAGCGUUCACGUCGCGGCCCCUGUCAGAUUCUCGUGAAUCUGCGAAUUCUGCUGU — lower, 0.0423
- AGGGGCCACAGCAGAAGCGUUCACGUCGCGGCCCCUGUCAGAUUCUUGUGAAUCUGCGAAUUCUGCUGU — higher, 0.104
- AGGGGCCACAGCAGAAGCGUUCACGUCGCGGCCCCUGUCAGAUUCUGGUAAAUCUGCGAAUUCUGCUGU — higher, 0.114
- AGGGGCCACAGCAGAAGCGUUCACGGCGCGGCCCCUGUCAGAUUCUGGUGAAUCUGCGAAUUCUGCUGU — lower, 0.0674
- AGGGGCCACAGCAGAAGCGUUCACGACGCGGCCCCUGUCAGAUUCUGGUGAAUCUGCGAAUUCUGCUGU — higher, 0.077
- AGGGGCCACAGCAGAAGCGUUCACGCCGCGGCCCCUGUCAGAUUCUGGUGAAUCUGCGAAUUCUGCUGU — higher, 0.138
- AGGGGCCACAGCAGAAGCGUGCACGUCGCGGCCCCUGUCAGAUUCUGGUGAAUCUGCGAAUUCUGCUGU — lower, 0.0454
- AGGGGCCACAGCAGAAGCGUACACGUCGCGGCCCCUGUCAGAUUCUGGUGAAUCUGCGAAUUCUGCUGU — higher, 0.132
- CGGGGCCACAGCAGAAGCGUUCCCGUCGCGGCCCCUGUCAGAUUCUGGUGAAUCUGCGAAUUCUGCUGU — higher, 0.25
- CGGGGCCACAGCAGAAGCGUUCGCGUCGCGGCCCCUGUCAGAUUCUGGUGAAUCUGCGAAUUCUGCUGU — higher, 0.149
- CGGGGCCACAGCAGAAGCGUUCUCGUCGCGGCCCCUGUCAGAUUCUGGUGAAUCUGCGAAUUCUGCUGU — higher, 0.222
- AGGGGCCACAGCAGAAGCGUUCACGUCGCGGCCCCUGUCAGAUCCUGGUGAAUCUGCGAAUUCUGCUGU — higher, 0.135
- AGGGGCCACAGCAGAAGCGUUCACGUCGCGGCCCCUGUCAGAUACUGGUGAAUCUGCGAAUUCUGCUGU — higher, 0.0757
- AGGGGCCACAGCAGAAGCGCUCACGUCGCGGCCCCUGUCAGAUUCUGGUGAAUCUGCGAAUUCUGCUGU — higher, 0.0855
- AGGGGCCACAGCAGAAGCGGUCACGUCGCGGCCCCUGUCAGAUUCUGGUGAAUCUGCGAAUUCUGCUGU — lower, 0.0728
- AGGGGCCACAGCAGAAGCGAUCACGUCGCGGCCCCUGUCAGAUUCUGGUGAAUCUGCGAAUUCUGCUGU — lower, 0.0538
- CGGGGCCACAGCAGAAGCGUUCACGUCGCGGCCCCUGUCAGGUUCUGGUGAAUCUGCGAAUUCUGCUGU — higher, 0.152
- CGGGGCCACAGCAGAAGCGUUCACGUCGCGGCCCCUGUCAGCUUCUGGUGAAUCUGCGAAUUCUGCUGU — higher, 0.274
- AGGGGCCACAGCAGAAGCGUUCACGUCGCGCCCCCUGUCAGAUUCUGGUGAAUCUGCGAAUUCUGCUGU — lower, 0.0308
- AGGGGCCACAGCAGAAGCGUUCACGUCGCGACCCCUGUCAGAUUCUGGUGAAUCUGCGAAUUCUGCUGU — lower, 0.0627
- AGGGGCCACAGCAGAAGCGUUCACGUCGCGGCCCCUGCCAGAUUCUGGUGAAUCUGCGAAUUCUGCUGU — lower, 0.0492
- CGGGGCCACAGCAGAAGCGUUCACGUCGCGGCCCCUGUCAGAUUCUGGUGAAUCUGCGAAUUCUGCUGU — higher, 0.219
- AGGGGCCACAGCAGAAGCGUUCACGUCGCGGCCCCUGUCAGAUUCUGGUGAAUCUGCGAAUACUGCUGU — higher, 0.0846
- CGGGGCCACAGCGGAAGCGUUCACGUCGCGGCCCCUGUCAGAUUCUGGUGAAUCUGCGAAUUCUGCUGU — higher, 0.183
- CGGGGCCACAGCUGAAGCGUUCACGUCGCGGCCCCUGUCAGAUUCUGGUGAAUCUGCGAAUUCUGCUGU — higher, 0.155
- CGGGGCCACAGCCGAAGCGUUCACGUCGCGGCCCCUGUCAGAUUCUGGUGAAUCUGCGAAUUCUGCUGU — higher, 0.143
- CGGGGCCACAGCAGAUGCGUUCACGUCGCGGCCCCUGUCAGAUUCUGGUGAAUCUGCGAAUUCUGCUGU — higher, 0.159
- CGGGGCCACAGCAGAGGCGUUCACGUCGCGGCCCCUGUCAGAUUCUGGUGAAUCUGCGAAUUCUGCUGU — higher, 0.254
- CGGGGCCACAGCAGAAGCGUUCACGUCGCGGCCCCUGUCAGAUUCUGGUGUAUCUGCGAAUUCUGCUGU — higher, 0.192
- CGGGGCCACAGCAGAAGCGUUCACGUCGCGGCCCCUGUCAGAUUCUGGUGCAUCUGCGAAUUCUGCUGU — higher, 0.149
- AGGGGCCACAGCAGAAGCGUUCACGUCGCGGCCCCUGUCAGAUUCUGGUGAAUCUGCGAAUUCUGCCGU — higher, 0.121
- AGGGGCCACAGCAGAAGCGUUCACGUCGCGGCCCCUGUCAGAUUCUGGUGAAUCUGCGAACUCUGCUGU — lower, 0.0531
- AGGGGCCACAGCAGAAGCGUUCACGUCGCGGCCCCUGUCAGAUUCUGGUGAAUCCGCGAAUUCUGCUGU — higher, 0.0976
- AGGGGCCACAGCAGAAGCGUUCACGUCGCGGCCCCUGUCAGAUUCUGGUGAAUCAGCGAAUUCUGCUGU — lower, 0.059
- AGGGGCCACAGCAGAAGCGUUCACGUCGCGGCCCCUGUCAGAUUCUGGUGAAUCUGCGAAUUCUUCUGU — higher, 0.106
- AGGGGCCACAGCAGAAGCGUUCACGUCGCGGCCCCUGUCAGAUUCUGGUGAAUCUGCGAAUUCUCCUGU — lower, 0.0479
- AGGGGCCACAGCAGAAGCGUUCACGUCGCGGCCCCUGUCAGAUUCUGGUGAAUCUGCGAAUUCUACUGU — lower, 0.0429
- CGGGGCCACGGCAGAAGCGUUCACGUCGCGGCCCCUGUCAGAUUCUGGUGAAUCUGCGAAUUCUGCUGU — higher, 0.21
- AGGGGCCACAGCAGAAGCGUUCACGUCGCGGCCCCUGUCAGAUUCUGGUGAAUCUGCAAAUUCUGCUGU — lower, 0.0724
- AGGGGCCACAGCAGAAGCGUUCACGUCGCGGCCCCUGUCAGAUUCUGGUGAAUCUGCCAAUUCUGCUGU — higher, 0.126
